How the values were obtained:
[1] = target: secretory chicken FcRY (lacking the membrane-spanning domain, residues 36-1396) (chicken); assay: BLI; BLItz, advanced kinetics; chicken FcRY (400 nM) immobilised on Ni-NTA sensor via His tag; Igs 50-600 nM; pH 5.5 (PBS, 0.05% Tween 20, 20 mM MES, 0.5% BSA); association 120 s, dissociation 120 s; 1:1 fit
[2] = target: secretory chicken FcRY (lacking the membrane-spanning domain, residues 36-1396) (chicken)
[3] = target: secretory chicken FcRY (lacking the membrane-spanning domain, residues 36-1396) (chicken); assay: ELISA; graded pH (pH 4.0-7.4), IgY-Fc mutants at 55.6 nM on FcRY held on copper-coated plates; the acidic points (strongest at pH 5.5, pH 5.0-6.0)
[4] = target: secretory chicken FcRY (lacking the membrane-spanning domain, residues 36-1396) (chicken); remark: listed apart in the source
[5] = target: secretory chicken FcRY (lacking the membrane-spanning domain, residues 36-1396); assay: competitive binding assay against DIG-IgY on FcRY-immobilized plate, ELISA; conditions: pH 6.0, DIG-IgY tracer (m10) 27.8 nM, value is DIG-IgY still bound (lower = stronger competition), no-competitor level est. 0.17 nM, n = 3, read off a plot
[6] = target: recombinant quail IgY-Fc Y363A Y363A; assay: bio-layer interferometry (BLItz, advanced kinetics mode); conditions: pH 5.5; PBS (composition not stated); PBS with 20 mM MES at pH 5.5 or 20 mM HEPES at pH 7.4
[7] = target: recombinant quail IgY-Fc wild type (WT); assay: as above; conditions: pH 5.5; PBS (composition not stated); PBS with 20 mM MES at pH 5.5 or 20 mM HEPES at pH 7.4
[8] = target: recombinant quail IgY-Fc G365A G365A; assay: as above; conditions: pH 5.5; PBS (composition not stated); PBS with 20 mM MES at pH 5.5 or 20 mM HEPES at pH 7.4
[9] = target: native quail IgY (qIgY); assay: as above; conditions: pH 5.5; PBS (composition not stated); PBS with 20 mM MES at pH 5.5 or 20 mM HEPES at pH 7.4
[10] = competitor 55.6 nM, parent: est. 0.080
[11] = competitor 111.1 nM, parent: est. 0.060
[12] = competitor 277.8 nM, parent: est. 0.042

| Kd [1] | koff [1] | kon [1] | response [5, 10] | response [5, 11] | response [5, 12] | Substance | further results |
| --- | --- | --- | --- | --- | --- | --- | --- |
| 275 nM | 0.0095 s⁻¹ | 35000 M⁻¹ s⁻¹ | – | – | – | native quail IgY (ligand) | – |
| 197 nM | 0.0082 s⁻¹ | 42000 M⁻¹ s⁻¹ | – | – | – | quail IgY-Fc mutant G365A (domain or fragment) | uptake of the intravenously injected DIG-labeled IgY-Fc mutant (20 ug/100 g BW) into quail egg yolks, eggs of 6 d, relative to WT [2]: 2 fold |
| 65 nM | 0.0015 s⁻¹ | 23000 M⁻¹ s⁻¹ | – | – | – | quail IgY-Fc mutant Y363A (domain or fragment) | amount bound at pH 5.0-6.0 relative to WT and G365A [3]: 2 fold |
| 333 nM | 0.0065 s⁻¹ | 19000 M⁻¹ s⁻¹ | – | – | – | recombinant quail wild-type IgY-Fc (domain or fragment) | uptake of DIG-labeled WT tracer into egg yolks of laying quail co-injected with the FcRY-neutralizing rabbit antibody Strong Ab (1 mg/100 g BW), relative to control rabbit IgG [4]: 20%; uptake of DIG-labeled WT tracer into egg yolks of laying quail co-injected with the FcRY-neutralizing rabbit antibody Weak Ab (1 mg/100 g BW), relative to control [4]: 60% |
| – | – | – | 0.15 nM | 0.13 nM | 0.14 nM | recombinant quail wild-type IgY-Fc G365D | – |
| – | – | – | 0.086 nM | 0.066 nM | 0.05 nM | recombinant quail wild-type IgY-Fc G365S | – |
| – | – | – | 0.11 nM | 0.1 nM | 0.086 nM | recombinant quail wild-type IgY-Fc N408A | – |
| – | – | – | – | – | – | secretory FcRY (IgY-Fc receptor, PLA2R homologue) ectodomain | ka [6]: 23000 M⁻¹ s⁻¹; kd [6]: 0.0015 s⁻¹; ka [7]: 19000 M⁻¹ s⁻¹; kd [7]: 0.0065 s⁻¹; ka [8]: 42000 M⁻¹ s⁻¹; kd [8]: 0.0082 s⁻¹; ka [9]: 35000 M⁻¹ s⁻¹; kd [9]: 0.0095 s⁻¹ |

From article PMC10938909
